Test results: IntAct's records for PubMed 25843002

Biological target: tr10b_human TNFRSF10B (UniProt O14763)

Ras-related C3 botulinum toxin substrate 1 (Homo sapiens) (from UniProt P63000) T17N
effect of a mutation on the interaction: decreasing interaction strength
